For series [1], the target named is T1, Arabidopsis thaliana cystinosin (plant cystinosin) (Arabidopsis thaliana, UniProt P57758).
T1 construct: gene At5g40670; codon-optimised gene expressed in Saccharomyces cerevisiae BJ5460 as cleavable C-terminal GFP-His fusion; tag cut with TEV protease; DDM-purified; reconstituted in POPE:POPG liposomes for transport
T1 sequence (P57758 1-270): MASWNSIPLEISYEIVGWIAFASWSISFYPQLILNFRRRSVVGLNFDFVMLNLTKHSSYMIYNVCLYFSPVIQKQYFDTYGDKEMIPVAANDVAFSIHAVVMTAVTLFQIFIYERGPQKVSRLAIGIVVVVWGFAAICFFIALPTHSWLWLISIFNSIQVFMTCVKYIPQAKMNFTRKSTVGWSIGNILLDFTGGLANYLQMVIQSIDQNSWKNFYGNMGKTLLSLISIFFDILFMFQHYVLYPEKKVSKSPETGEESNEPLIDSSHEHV
The series is described as follows: X-ray crystal structure, […] Å. Particulars: complex with sybody Syb39; lipidic cubic phase; central binding site, inward-open state.

Series [2] deals with T2, Arabidopsis thaliana cystinosin (plant cystinosin) (Arabidopsis thaliana, UniProt P57758, S228A).
T2 construct: gene At5g40670; codon-optimised gene expressed in Saccharomyces cerevisiae BJ5460 as cleavable C-terminal GFP-His fusion; tag cut with TEV protease; DDM-purified; reconstituted in POPE:POPG liposomes for transport
T2 sequence (P57758 1-270 S228A): T1 sequence (P57758 1-270) with S228A
The series is described as follows: nanoDSF tryptophan fluorescence quench, DDM-purified protein. It counts as binding. Particulars: 3.2 mM L-cystine, 10 μM protein, pH 7.2, 25 °C.

Series [3] addresses T3, Arabidopsis thaliana cystinosin (plant cystinosin) (Arabidopsis thaliana, UniProt P57758, P169G).
T3 construct: gene At5g40670; codon-optimised gene expressed in Saccharomyces cerevisiae BJ5460 as cleavable C-terminal GFP-His fusion; tag cut with TEV protease; DDM-purified; reconstituted in POPE:POPG liposomes for transport
T3 sequence (P57758 1-270 P169G): T1 sequence (P57758 1-270) with P169G
The series is described as above. It counts as binding. Particulars: 3.2 mM L-cystine, 10 μM protein, pH 7.2, 25 °C.

Series [4] has as its target T4, Arabidopsis thaliana cystinosin (plant cystinosin) (Arabidopsis thaliana, UniProt P57758, W24F).
T4 construct: gene At5g40670; codon-optimised gene expressed in Saccharomyces cerevisiae BJ5460 as cleavable C-terminal GFP-His fusion; tag cut with TEV protease; DDM-purified; reconstituted in POPE:POPG liposomes for transport
T4 sequence (P57758 1-270 W24F): T1 sequence (P57758 1-270) with W24F
The series is described as above. Format: binding. Conditions: 3.2 mM L-cystine, 10 μM protein, pH 7.2, 25 °C.

Series [5] has as its target T1, Arabidopsis thaliana cystinosin (plant cystinosin). The series is described as follows: pyranine proton-flux transport assay in proteoliposomes. Particulars: 500 μM substrate, pH 7.2, 25 °C, valinomycin / K+ gradient. It counts as biochemical.
Series [6] has as its system T5, N[C@@H](CSSC[C@H](N)C(=O)O)C(=O)O.
T5 construct: no GFP; plasma membrane of Xenopus laevis oocytes
The series is described as follows: two-electrode voltage clamp in Xenopus laevis oocytes. It counts as cell-based, Homo sapiens. Conditions: pH 5, -40 mV, ND-96, proton-coupled transport. A general note: Two-electrode voltage clamp holds a large cell at a set potential and records current.

Substrate in series [7]: N[C@@H](CSSC[C@H](N)C(=O)O)C(=O)O
Described as above. It counts as cell-based, Homo sapiens. Particulars: pH 5, -40 mV, ND-96, proton-coupled transport.

Substrate in series [8]: N[C@@H](CSSC[C@H](N)C(=O)O)C(=O)O
The series is described as follows: pyranine proton-flux transport assay in proteoliposomes. It counts as biochemical, Arabidopsis thaliana. Particulars: pH 7.2 both sides, 25 °C, valinomycin / K+ gradient.

For series [9], the target named is T6, Arabidopsis thaliana cystinosin (Arabidopsis thaliana, UniProt P57758).
T6 construct: cystinosin from Arabidopsis thaliana, Uniprot P57758; codon-optimised synthetic gene in pDDGFP-Leu2d; also called plant cystinosin; the transporter; source: Saccharomyces cerevisiae BJ5460, purified in DDM (Ni-NTA, TEV cleavage, reverse IMAC, Superdex 200)
The series is described as follows: crystal structure; apo cystinosin with Nb1 and Nb4, lipidic cubic phase, 2.33 Å, PDB 7ZKZ. Conditions: both partners purified.

For series [10], the target named is T7, Arabidopsis thaliana cystinosin (Arabidopsis thaliana, UniProt P57758 1-270).
T7 chain: T1 sequence (P57758 1-270)
The series is described as follows: BLI. (In BLI a coated tip is dipped into the sample, and binding shifts an interference pattern.)

Series [11] concerns the target T6, Arabidopsis thaliana cystinosin. The series is described as follows: crystal structure; apo cystinosin with Syb39 and Nb4, lipidic cubic phase (monoolein), 20 °C, 2.65 Å, PDB 7ZK1. Conditions: both partners purified.

Residue numbers refer to the chain shown, from its start. Names may count otherwise.

For `N[C@@H](CSSC[C@H](N)C(=O)O)C(=O)O` [L-cystine], in series [1], the “X-ray crystal structure, 3.37 Å” value is listed as “we determined the structure of the ligand bound state in complex with Syb39”. Moreover, the “% loss of binding relative to WT” value in [2] and in series [4] was ~ 50% throughout. In series [3], the “nanoDSF tryptophan fluorescence quench, DDM-purified protein” value is “it still retains WT levels of L-cystine binding”.
Regarding `N[C@@H](CSS(=O)(=O)C[C@H](N)C(=O)O)C(=O)O` [L-cystine-S,S-dioxide], the “transport, % of WT levels at 500 μM” value in series [5] was ~ 80%.
With “human cystinosin (WT) (Homo sapiens; DEL362-367)”, the Km in [6] was 117 ± 2.4 µM.

B1: human cystinosin Δ2-115 variant (ΔN) (Homo sapiens; DEL2-115) (protein)
chain: MLVIRSSAISIINQVIGWIYFVAWSISFYPQVIMNWRRKSVIGLSFDFVALNLTGFVAYSVFNIGLLWVPYIKEQFLLKYPNGVNPVNSNDVFFSLHAVVLTLIIIVQCCLYERGGQRVSWPAIGFLVLAWLFAFVTMIVAAVGVTTWLQFLFCFSYIKLAVTLVKYFPQAYMNFYYKSTEGWSIGNVLLDFTGGSFSLLQMFLQSYNNDQWTLIFGDPTKFGLGVFSIVFDVVFFIQHFCLYRKRP
notes: no GFP; Xenopus laevis oocytes
With B1, the Km in series [7] was determined as 117 ± 28.9 µM.

B2: Arabidopsis thaliana cystinosin (plant cystinosin) (Arabidopsis thaliana) (protein)
chain: T1 sequence (P57758 1-270)
notes: codon-optimised gene expressed in Saccharomyces cerevisiae BJ5460 as cleavable C-terminal GFP-His fusion; tag cut with TEV protease; DDM-purified; reconstituted in POPE:POPG liposomes for transport
As for B2, the Km in series [8] (proton-coupled symport) worked out at 19 ± 2.9 µM.

B3: Arabidopsis thaliana cystinosin (plant cystinosin) (Arabidopsis thaliana; Y167F) (protein)
chain: T1 sequence (P57758 1-270) with Y167F
notes: as for B2
B3: the Km in [8] is 73.3 ± 12.8 µM.

B4: Nb4 (VHH)
VHH: QVQLVESGGGLVQAGGSLRLSCAASGRTITPISTYVMGWFRQDPGKEREFVASISWNGANTYYADSVKGRFTISRDNAKNTVYLQMNSLKPEDTAVYYCAADPESHVRLRLGVGAYWGRGTQVTVSS
notes: llama nanobody; also called llama derived nanobody (Nb4)
For B4, the binding result in series [9] is listed as “binds”. Further, binding in series [10] was characterised by a dissociation constant (Kd) of 0.09 µM.

B5: Nb1 (VHH)
VHH: QVQLVESGGGSAQPGGSLRLSCAVSGSVSELNTMGWFRQAPGKQRELVARITATSDATNYADSVKGRFTISRDNGWNTVYLQSNSLKPEDSAVYYCNVEGAPSWFSGIRSYWGQGTQVTVSS
notes: llama nanobody
In the case of B5, the binding result in series [9] was “binds”. The molecule further gave a Kd in [10] of 0.189 µM.

B6: sybody 39 (VHH)
VHH: QVQLVESGGGLVQAGGSLRLSCAASGFPVYRNRMHWYRQAPGKEREWVAAIESAGQETHYADSVKGRFTISRDNAKNTVYLQMNSLKPEDTAVYYCNVKDEGWYWQTYDYWGQGTQVTVSA
notes: synthetic nanobody selected from the loop library; also called Syb39
In the case of B6, in series [11], the binding result was “binds”. In series [10], this molecule showed a Kd of 0.76 µM.

In general, Km refers to the substrate concentration at which the rate is half of its maximum. A word on the Kd: it is the constant that tells how readily two partners part at equilibrium. Lower therefore signals tighter binding.

These data come from paper PMC9385667, “Structural basis for proton coupled cystine transport by cystinosin” (Nature Communications, 2022).
